What all share (conditions): tags: NLS, 6xHis
The target in one series is T1, MHP14(13) (artificial).
T1 chain: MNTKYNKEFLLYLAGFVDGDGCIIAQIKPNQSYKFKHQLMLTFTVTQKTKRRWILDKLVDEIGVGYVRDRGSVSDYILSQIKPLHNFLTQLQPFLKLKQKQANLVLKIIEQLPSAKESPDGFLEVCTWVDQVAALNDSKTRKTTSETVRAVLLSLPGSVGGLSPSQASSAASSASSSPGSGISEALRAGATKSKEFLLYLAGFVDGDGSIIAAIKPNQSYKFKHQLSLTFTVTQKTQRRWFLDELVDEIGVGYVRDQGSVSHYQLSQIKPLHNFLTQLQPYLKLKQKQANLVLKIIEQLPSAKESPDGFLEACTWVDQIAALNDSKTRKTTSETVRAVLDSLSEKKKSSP
As to the kind of experiment: cell_activity; yeast 37 C; 28 C: 1. The protocol: (§1) A 3 mL culture of selective media (MP Biomedical) was inoculated with a single colony of the yeast screening strain and grown at 30° C. overnight. On the following day, a 50 ml YPD culture (MP Biomedical) was started with 2 ml of the overnight culture and grown at 30° C. overnight. On the following day, the cells were harvested by centrifugation at 4000 rpm. The cells were resuspended in 100 ml ice cold water and centrifuged again. The cells were then washed in 1.2 M sorbitol, followed by treatment with 2 ml of 10 mM Tris pH 8.0, 1 mM EDTA, 100 mM Lithium acetate, 10 mM DTT, 0.6M sorbitol for 30 minutes at 30° C. with shaking. The cells were recovered by centrifugation, washed in 40 ml 1.2M sorbitol and finally resuspended in 250 microliters of 1.2M sorbitol. 50 microliter aliquots were transferred to test tubes on ice. Up to 5 microliters of DNA (100-500 nanograms) were added. The suspension was transferred to a 0.2 cm electroporation cuvette, on ice. Electroporation was performed with a pulse charge at 1.5 kV, 200 ohms, 25 microF (pulse time of 5 milliseconds). 1 mL YPD media (MP Biomedical) was added and the cells were allowed to recover at 30° C. for 1-2 hr. The cells were centrifuged, resuspended in 100 uL 1M sorbitol and plated on selective media lacking leucine and containing 2% galactose. The resulting yeast colonies were incubated at various temperatures ranging from 22 to 37 degrees Celsius for 7-10 days. I-CreI and meganucleases derived from it have maximal activity at or above 37 degrees Celsius. Screening was performed at a range of temperatures from 22 to 37 degrees in order to observe increases in activity at lower temperatures which are relevant to certain biological systems (eg. plant cells, plant cell cultures, etc). At that time the red/white sectoring phenotype, indicative of meganuclease activity was observed. Colonies with increased white sectoring over the parental meganuclease (indicating colonies expressing a meganuclease with increased meganuclease activity), also referred to as “hits” and sometimes completely white, were isolated for further analysis. […]

Another series deals with T2, MHP14(14) (artificial).
T2 chain: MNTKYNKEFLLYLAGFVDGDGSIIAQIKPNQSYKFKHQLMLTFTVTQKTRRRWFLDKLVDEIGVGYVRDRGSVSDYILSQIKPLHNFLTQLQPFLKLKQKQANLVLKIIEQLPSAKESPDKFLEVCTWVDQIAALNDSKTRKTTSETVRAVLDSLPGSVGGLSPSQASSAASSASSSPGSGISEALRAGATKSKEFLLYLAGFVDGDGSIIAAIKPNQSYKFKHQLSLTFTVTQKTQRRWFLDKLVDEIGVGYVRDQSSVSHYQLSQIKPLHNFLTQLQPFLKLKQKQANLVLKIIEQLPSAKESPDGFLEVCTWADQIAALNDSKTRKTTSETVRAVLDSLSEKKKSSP
Briefly: cell_activity; yeast 37 C; 28 C: 1. The protocol: as §1

The next series deals with T3, MHP14(08) (artificial).
T3 chain: T2 chain with S22C, R50K, F54I, D56L, S258G, G308K
Briefly: cell_activity; yeast 37 C; 28 C: 1. On the procedure:
as §1

The next series concerns the target T4, MHP14(03) (artificial).
T4 chain: T1 chain with G19S, K50Q, D56L, V59H, N103V, L153D, A312V, V316A, I319V
As to the kind of experiment: cell_activity; yeast 37 C; 28 C: 0.5. The protocol:
as §1

Another series has as its target T5, MHP14(L14-07) (artificial).
T5 chain: T2 chain with Y12H, R50Q, I132T, S258G, G308K, A316V
Briefly: cell_activity; yeast 37 C; 28 C: 0.5. The protocol: as §1

Drawing on patent US20140223606, “COMPOSITIONS AND METHODS COMPRISING SEQUENCES HAVING MEGANUCLEASE ACTIVITY” (PIONEER HI BRED INTERNATIONAL INC, published 2014), this text covers activity for one molecule.

Substitutions are numbered along the chain they refer to.

B1: MHP14 recognition site (dsDNA)
DNA 1: CAAACAGATTCACGTCAGATTT
DNA 2: AAATCTGACGTGAATCTGTTTG
B1: the activity turned out to be 3.5 score 0-4 with MHP14(13); 4 score 0-4 with MHP14(14); 4 score 0-4 with MHP14(08); 3 score 0-4 with MHP14(03); 4 score 0-4 with MHP14(L14-07).
